Test results from paper doi:10.1101/2024.05.01.592117.

How the values were obtained:
[1] = target: 40S small ribosomal subunit (salt-washed, purified) (human) (UniProt P23396); assay: fluorescence polarisation
[2] = target: 43S preinitiation complex (40S + eIFs 1, 1A, 5, 3j, eIF2-TC and eIF3) (human) (UniProt P23396); assay: native gel or EMSA
[3] = target: 43S preinitiation complex (40S + eIFs 1, 1A, 5, 3j, eIF2-TC and eIF3) (human) (UniProt P23396); assay: fluorescence polarisation

fluorescence-labeled Pdcd4-NTD (FL-Pdcd4-NTD, residues 1-156), sequence (Q53EL6 1-156): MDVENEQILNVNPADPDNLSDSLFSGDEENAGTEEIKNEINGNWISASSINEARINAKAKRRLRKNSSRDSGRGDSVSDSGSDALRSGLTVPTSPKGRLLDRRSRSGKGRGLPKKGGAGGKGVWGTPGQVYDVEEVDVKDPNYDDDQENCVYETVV
Pdcd4 (programmed cell death 4), wild type, residues 1-469, sequence (Q53EL6 whole entry, the tested form may be a part): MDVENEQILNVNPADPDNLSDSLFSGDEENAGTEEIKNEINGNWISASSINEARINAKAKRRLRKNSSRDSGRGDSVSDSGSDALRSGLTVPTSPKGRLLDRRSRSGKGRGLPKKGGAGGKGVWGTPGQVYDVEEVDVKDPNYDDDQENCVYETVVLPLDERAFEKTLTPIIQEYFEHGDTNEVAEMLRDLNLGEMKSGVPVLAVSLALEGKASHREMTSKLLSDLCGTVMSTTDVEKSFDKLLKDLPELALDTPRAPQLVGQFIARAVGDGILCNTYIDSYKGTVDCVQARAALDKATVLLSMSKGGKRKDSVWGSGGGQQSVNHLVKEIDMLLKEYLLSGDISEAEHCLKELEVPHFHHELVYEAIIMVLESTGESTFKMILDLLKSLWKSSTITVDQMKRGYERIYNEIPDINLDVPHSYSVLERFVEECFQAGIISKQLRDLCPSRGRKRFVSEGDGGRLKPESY
fluorescence-labeled full-length Pdcd4 (FL-Pdcd4), sequence (Q53EL6 whole entry): as the sequence (Q53EL6 whole entry, the tested form may be a part) above
Pdcd4-NTD (residues 1-156), unlabeled, sequence (Q53EL6 1-156): as the sequence (Q53EL6 1-156) above

Pdcd4 (programmed cell death 4), wild type, residues 1-469 (from UniProt Q53EL6 1-469) (natural protein)
Ki [1]: 23 nM

Pdcd4-NTD (residues 1-156), unlabeled (from UniProt Q53EL6 1-156) (domain or fragment)
Ki [1]: 21 nM

fluorescence-labeled full-length Pdcd4 (FL-Pdcd4) (from UniProt Q53EL6 1-469) (natural protein)
percent binding compared to the 40S (lane 2) [2]: < 20%

fluorescence-labeled Pdcd4-NTD (FL-Pdcd4-NTD, residues 1-156) (from UniProt Q53EL6 1-156) (domain or fragment)
fold reduction in affinity against the 40S alone [1]: > 10 fold
fold reduction in affinity against the 40S alone [3]: > 100 fold
percent binding compared to the 40S (lane 2) [2]: < 20%
